# Experimental data taken from patent US20230176070A1 (published 2023).
# B1: G47 (VHH)
# VHH: QVQLVESGGGLVQAGGSLRLSCAASERIFSNYAMGWFRQAPGKEREFVASIRGSGSQTSYADSVKGRFTISRDGAKDTVDLQMNSLKPEDTAVYYCSAKKYCGSTYNRAEGYDYWGQGTQVTVSS
# Molecular target: glutathione S-transferase (UniProt P08515 1-218 = GST)
# Test: SPR
# Sequence of glutathione S-transferase (P08515 whole entry): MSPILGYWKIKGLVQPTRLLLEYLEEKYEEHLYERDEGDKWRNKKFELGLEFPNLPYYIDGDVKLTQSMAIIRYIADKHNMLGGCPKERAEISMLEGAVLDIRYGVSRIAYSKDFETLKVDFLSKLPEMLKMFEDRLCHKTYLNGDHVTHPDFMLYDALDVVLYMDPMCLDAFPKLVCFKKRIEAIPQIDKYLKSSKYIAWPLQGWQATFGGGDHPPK
binder,measurement,value
B1,Kd,17.6 nM
